For one assay, the target named is JAK2 kinase domain (JH1) (UniProt O60674). Briefly: cell-based or functional assay.
In a further assay the target is JAK3 kinase domain (JH1) (UniProt P52333). Briefly: cell-based or functional assay.
Another assay has as its target TYK2 kinase domain (JH1) (UniProt P29597). Briefly: cell-based or functional assay.
The target of assay [1] is JAK1 kinase domain (JH1) (human) (UniProt P23458). Briefly: cell-based or functional assay.
In assay [2] the target is JAK1-Y1034 phosphopeptide with an alanine substitution at the +3 position (human). Briefly: ITC, alanine-substituted phosphopeptide. (ITC needs no label: the signal is the heat of the interaction.)
In assay [3] the target is JAK1 activation loop phosphopeptide (Tyr1034 phosphorylated) (human). Briefly: ITC.

For the substance “hCIS-SH2-BC complex (ternary complex of human GST-CIS-SH2 construct, residues 66-258 with PEST region 174-202 deleted, with Elongin B and Elongin C) (from UniProt Q9NSE2 66-258; Q15370 1-118; P83940 17-112)”, in the assay with JAK2 kinase domain (JH1), the fold difference of kinase inhibition, JAK1 against JAK2 (in vitro kinase assay) is 20 fold. In the assay with JAK3 kinase domain (JH1), this substance returned a fold difference of kinase inhibition, JAK1 against JAK3 (in vitro kinase assay) of 20 fold. Moreover, the fold difference of kinase inhibition, JAK1 against TYK2 (in vitro kinase assay) with TYK2 kinase domain (JH1) was 20 fold. In assay [1], the IC50 of inhibition of JAK1 phosphorylation of a substrate peptide (in vitro kinase assay) stood at 120 nM and the efficiency of JAK1 kinase inhibition against SOCS1 as reference came out at 100 fold.

“human CIS lacking both the N-terminal region (residues 1-66) and the PEST motif (ΔNT/ΔPEST) in trimeric complex with elongin B and elongin C (from UniProt Q9NSE2 67-258; Q15370 1-118; Q15369 17-112)”: the fold reduction of binding against the wild-type JAK1-Y1034 phosphopeptide in assay [2] was determined as 4 fold. In addition, in assay [1], the IC50 of inhibition of the JAK1 kinase domain (JH1), in vitro kinase reaction amounted to 600 nM.

As usually defined, the Kd is a measure of binding affinity in units of concentration. A high value points to a looser complex. Regarding “human CIS lacking the N-terminal 34 residues (ΔN34) in trimeric complex with elongin B and elongin C (from UniProt Q9NSE2 35-258; Q15370 1-118; Q15369 17-112)”, in assay [3], the Kd is 2200 to 10000 nM.

Source of the values: patent publication US20180298101A1.
